According to article PMC3701042, “Structural Studies of a Bacterial tRNA^HIS Guanylyltransferase (Thg1)-Like Protein, with Nucleotide in the Activation and Nucleotidyl Transfer Sites” (PLoS ONE, 2013):

Assays:
[1] = target: Bacillus thuringiensis tRNA^His guanylyltransferase (Thg1)-like protein (TLP) (Bacillus thuringiensis); assay: crystal structure; BtTLP co-crystallised with ~1 mM ATP; orthorhombic crystals, space group C222_(1), 2.35 Å; four molecules per asymmetric unit (two dimers)
[2] = target: Bacillus thuringiensis tRNA^His guanylyltransferase (Thg1)-like protein (TLP) (Bacillus thuringiensis); assay: crystal structure; BtTLP co-crystallised with ~2 mM GTP; tetragonal crystals, space group P4_(1), 2.96 Å; four monomers per asymmetric unit

stoichiometry N [1]: 4 | stoichiometry N [2]: 4
Substance: Bacillus thuringiensis tRNA^His guanylyltransferase (Thg1)-like protein (TLP) (enzyme)
